Results: patent US20110212094A1 (AbbVie / Abbott, published 2011)

B1: DVD1249 (bispecific antibody, human IgG1, kappa)
heavy: not shown
light: DVQMIQSPSSLSASLGDIVTMTCQASQGTSINLNWFQQKPGKAPKLLIYGSSNLEDGVPSRFSGSRYGTDFTLTISSLEDEDLATYFCLQHSYLPYTFGGGTKLEIKRTVAAPDIQMTQSPSSLSASVGDRVTITCRASQGIRIDLGWYQQKPGKAPKRLIYAASTLQSGVPSRFSGSGSGTEFIFTISSLQPEDFASYYCLQHKSYPLTFGGGTKVEIKRTVAAPSVFIFPPSDEQLKSGTASVVCLLNNFYPREAKVQWKVDNALQSGNSQESVTEQDSKDSTYSLSSTLTLSKADYEKHKVYACEVTHQGLSSPVTKSFNRGEC
notes: constant regions from vectors V1/V2; also called DVD1249H; DVD1249L
B2: DVD1251 (bispecific antibody, human IgG1, kappa)
heavy: not shown
light: DIQMTQSPSSLSASVGDRVTITCRASQSISNNLNWYQQKPGKAPKLLIYYTSRFHSGVPSRFSGSGSGTDFTFTISSLQPEDIATYYCQQEHTLPYTFGQGTKLEIKRTVAAPDIQMTQSPSSLSASVGDRVTITCRASQGIRIDLGWYQQKPGKAPKRLIYAASTLQSGVPSRFSGSGSGTEFIFTISSLQPEDFASYYCLQHKSYPLTFGGGTKVEIKRTVAAPSVFIFPPSDEQLKSGTASVVCLLNNFYPREAKVQWKVDNALQSGNSQESVTEQDSKDSTYSLSSTLTLSKADYEKHKVYACEVTHQGLSSPVTKSFNRGEC
notes: constant regions from vectors V1/V2; also called DVD1251H; DVD1251L
B3: DVD1226 (bispecific antibody, human IgG1, kappa)
heavy: not shown
light: DIVMTQSHKFMSTTVGDRVSITCKASQAVSSAVAWYQQKPGQSPKLLIYWASTRHTGVPDRFTGSGSVTDFTLTIHNLQAEDLALYYCQQHYSTPFTFGSGTKLEIKRTVAAPDVQMIQSPSSLSASLGDIVTMTCQASQGTSINLNWFQQKPGKAPKLLIYGSSNLEDGVPSRFSGSRYGTDFTLTISSLEDEDLATYFCLQHSYLPYTFGGGTKLEIKRTVAAPSVFIFPPSDEQLKSGTASVVCLLNNFYPREAKVQWKVDNALQSGNSQESVTEQDSKDSTYSLSSTLTLSKADYEKHKVYACEVTHQGLSSPVTKSFNRGEC
notes: constant regions from vectors V1/V2; also called DVD1226H; DVD1226L
B4: DVD1233 (bispecific antibody, human IgG1, kappa)
heavy: not shown
light: DIQMTQSPSSLSASVGDRVTITCRASQSISNNLNWYQQKPGKAPKLLIYYTSRFHSGVPSRFSGSGSGTDFTFTISSLQPEDIATYYCQQEHTLPYTFGQGTKLEIKRTVAAPDIVMTQSHKFMSTTVGDRVSITCKASQAVSSAVAWYQQKPGQSPKLLIYWASTRHTGVPDRFTGSGSVTDFTLTIHNLQAEDLALYYCQQHYSTPFTFGSGTKLEIKRTVAAPSVFIFPPSDEQLKSGTASVVCLLNNFYPREAKVQWKVDNALQSGNSQESVTEQDSKDSTYSLSSTLTLSKADYEKHKVYACEVTHQGLSSPVTKSFNRGEC
notes: constant regions from vectors V1/V2; also called DVD1233H; DVD1233L
B5: AB020 (antibody, V domains shown)
VH: QVQLQESGPGLVKPSETLSLTCTVSGFSLIGYDLNWIRQPPGKGLEWIGIIWGDGTTDYNSAVKSRVTISKDTSKNQFSLKLSSVTAADTAVYYCARGGYWYATSYYFDYWGQGTLVTVSS
VL: DIQMTQSPSSLSASVGDRVTITCRASQSISNNLNWYQQKPGKAPKLLIYYTSRFHSGVPSRFSGSGSGTDFTFTISSLQPEDIATYYCQQEHTLPYTFGQGTKLEIKR
notes: Parent anti-NGF antibody; also called NGF; AB020VH

Key:
[1] = target: T1, Recombinant Human TNF-α/TNFSF1A (human, UniProt P01375 77-233); experiment: Biacore SPR
T1 construct: Bought reagent for Biacore; also called huTNFα
T1 sequence (P01375 77-233 limits assumed): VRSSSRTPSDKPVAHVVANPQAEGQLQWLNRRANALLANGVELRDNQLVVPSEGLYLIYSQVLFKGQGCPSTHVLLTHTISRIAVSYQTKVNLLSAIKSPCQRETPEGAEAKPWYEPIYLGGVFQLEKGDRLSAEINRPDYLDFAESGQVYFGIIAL
Procedure: (§1) The BIACORE assay (Biacore, Inc, Piscataway, N.J.) determines the affinity of antibodies or DVD-Ig with kinetic measurements of on-rate and off-rate constants. Binding of antibodies or DVD-Ig to a target antigen (for example, a purified recombinant target antigen) is determined by surface plasmon resonance-based measurements with a Biacore® 1000 or 3000 instrument (Biacore® AB, Uppsala, Sweden) using running HBS-EP (10 mM HEPES [pH 7.4], 150 mM NaCl, 3 mM EDTA, and 0.005% surfactant P20) at 25° C. All chemicals are obtained from Biacore® AB (Uppsala, Sweden) or otherwise from a different source as described in the text. For example, approximately 5000 RU of goat anti-mouse IgG, (Fcγ), fragment specific polyclonal antibody (Pierce Biotechnology Inc, Rockford, Ill.) diluted in 10 mM sodium acetate (pH 4.5) is directly immobilized across a CM5 research grade biosensor chip using a standard amine coupling kit according to manufacturer's instructions and procedures at 25 μg/ml. Unreacted moieties on the biosensor surface are blocked with ethanolamine. Modified carboxymethyl dextran surface in flowcell 2 and 4 is used as a reaction surface. Unmodified carboxymethyl dextran without goat anti-mouse IgG in flow cell 1 and 3 is used as the reference surface. For kinetic analysis, rate equations derived from the 1:1 Langmuir binding model are fitted simultaneously to association and dissociation phases of all eight injections (using global fit analysis) with the use of Biaevaluation 4.0.1 software. Purified antibodies or DVD-Ig are diluted in HEPES-buffered saline for capture across goat anti-mouse IgG specific reaction surfaces. Antibodies or DVD-Ig to be captured as a ligand (25 μg/ml) are injected over reaction matrices at a flow rate of 5 μl/min. The association and dissociation rate constants, kₘ (M⁻¹s⁻¹) and koff (s⁻¹) are determined under a continuous flow rate of 25 μl/min. Rate constants are derived by making kinetic binding measurements at different antigen concentrations ranging from 10-200 nM. The equilibrium dissociation constant (M) of the reaction between antibodies or DVD-Igs and the target antigen is then calculated from the kinetic rate constants by the following formula: KD=koff/kₒₙ. Binding is recorded as a function of time and kinetic rate constants are calculated.

Recombinant Human SOST = target: T2, Recombinant Human SOST (human, UniProt Q9BQB4 24-213); experiment: Biacore SPR
T2 construct: R&D reagent in Biacore; also called sclerostin; Human sclerostin (Abbott PR-1261069)
T2 sequence (looked up): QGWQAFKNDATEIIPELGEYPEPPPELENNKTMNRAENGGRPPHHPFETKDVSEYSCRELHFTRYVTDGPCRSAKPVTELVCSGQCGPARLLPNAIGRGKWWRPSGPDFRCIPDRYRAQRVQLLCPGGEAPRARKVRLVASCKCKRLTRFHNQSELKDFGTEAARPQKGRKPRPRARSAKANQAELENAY
Procedure: as §1

[2] = target: T1, Recombinant Human TNF-α/TNFSF1A; experiment: cell-based or functional assay
Recombinant Human β-NGF [3] = target: T3, Recombinant Human β-NGF (human, UniProt P01138 122-239, limits assumed); experiment: Biacore SPR
T3 construct: Bought reagent used in the Biacore analyses
T3 sequence (P01138 122-239 limits assumed): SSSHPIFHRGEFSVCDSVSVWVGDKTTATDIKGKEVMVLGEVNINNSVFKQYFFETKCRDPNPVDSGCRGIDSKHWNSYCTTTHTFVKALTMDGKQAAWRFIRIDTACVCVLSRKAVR
Procedure: as §1

[4] = target: NGF (Neuroscreen-1 bioassay); experiment: cell-based or functional assay
Recombinant Human β-NGF [5] = target: T3, Recombinant Human β-NGF; experiment: Biacore SPR; 25 C, HBS-EP pH 7.4; antibody captured on the chip, antigen 10-200 nM in flow
Procedure: The BIACORE assay (Biacore, Inc, Piscataway, N.J.) determines the affinity of antibodies or DVD-Ig with kinetic measurements of on-rate and off-rate constants. Binding of antibodies or DVD-Ig to a target antigen (for example, a purified recombinant target antigen) is determined by surface plasmon resonance-based measurements with a Biacore® 1000 or 3000 instrument (Biacore® AB, Uppsala, Sweden) using running HBS-EP (10 mM HEPES [pH 7.4], 150 mM NaCl, 3 mM EDTA, and 0.005% surfactant P20) at 25° C. All chemicals are obtained from Biacore® AB (Uppsala, Sweden) or otherwise from a different source as described in the text. […] The association and dissociation rate constants, kₘ (M⁻¹s⁻¹) and koff (s⁻¹) are determined under a continuous flow rate of 25 μl/min. […] The equilibrium dissociation constant (M) of the reaction between antibodies or DVD-Igs and the target antigen is then calculated from the kinetic rate constants by the following formula: KD=koff/kₒₙ. Binding is recorded as a function of time and kinetic rate constants are calculated.

Binder | Kd [1] [nM] | koff [1] [s⁻¹] | kon [1] [M⁻¹ s⁻¹] | Kd (Recombinant Human SOST) [nM] | koff (Recombinant Human SOST) [s⁻¹] | kon (Recombinant Human SOST) [M⁻¹ s⁻¹] | C-terminal VD TNFα Neutralization Assay EC50 nM (L929 cells) [2] [nM] | Kd (Recombinant Human β-NGF [3]) [nM] | koff (Recombinant Human β-NGF [3]) [s⁻¹] | kon (Recombinant Human β-NGF [3]) [M⁻¹ s⁻¹] | N-Terminal VD NGF Inhibition Assay EC50 pM (ERK1/2 phosphorylation, Neuroscreen-1 cells) [4] [pM] | N-terminal VD TNFα Neutralization Assay EC50 nM (L929 cells) [2] [nM] | NGF Inhibition Assay EC50 pM (ERK1/2 phosphorylation, Neuroscreen-1 cells) [4] [pM] | Kd (Recombinant Human β-NGF [5]) [nM]
B1 | 0.389 | 0.000253 | 649000 | 0.017 | 0.000159 | 9.42e+06 | 5.42 |  |  |  |  |  |  | 
B2 | 0.0894 | 5.73e-05 | 641000 |  |  |  | 8.02 | 0.0139 | 1.17e-05 | 842000 | 95 |  |  | 
B3 | 0.0288 | 0.000116 | 4.02e+06 | 2.71 | 0.000199 | 73400 |  |  |  |  |  | 0.0409 |  | 
B4 | 0.115 | 2.82e-05 | 244000 |  |  |  | 42.4 | 0.0217 | 1.82e-05 | 840000 | 62 |  |  | 
B5 |  |  |  |  |  |  |  |  | 4.08e-06 | 606000 |  |  | 53 | 0.00673
